Data on one protein can be found in PMC7659722 (The Journal of Cell Biology, 2020).

This series deals with the molecule itself. As to the kind of experiment: SDS-PAGE.

B1: recombinant human FIT2 WT, 3FLAG-tagged (enzyme, UniProt Q8N6M3 1-262, looked up)
chain: MEHLERCEWLLRGTLVRAAVRRYLPWALVASMLAGSLLKELSPLPESYLSNKRNVLNVYFVKVAWAWTFCLLLPFIALTNYHLTGKAGLVLRRLSTLLVGTAIWYICTSIFSNIEHYTGSCYQSPALEGVRKEHQSKQQCHQEGGFWHGFDISGHSFLLTFCALMIVEEMSVLHEVKTDRSHCLHTAITTLVVALGILTFIWVLMFLCTAVYFHNLSQKVFGTLFGLLSWYGTYGFWYPKAFSPGLPPQSCSLNLKQDSYKK
Consider B1, for which the binding result is given as “binds”.
